Reference: the supplement of paper PMC10126150
± gives the standard deviation of the averaged measurements.

Test system: ATP
Test: switch fluorescence ratio, 500 uM ATP over buffer (Cy3 cluster intensity, sum of 5 cycles each) (fold (ratio)); higher = stronger signal-on switching upon ATP binding; sequences stand for … in TCGTCGGCAGCGTCAGATGTGTATAAGAGACAGTTTTTTTTTTTTTTTTTTTTTTTTT…TC
Conditions: aptamer strand: ATP DNA aptamer (quencher-CACCTGGGGGAGTATTGCGGAGGAAGG + anchor), 100 nM annealed; ATP concentration: 500 uM
How it was run: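 Imaging in selection buffer was followed by imaging after 15 min with 500 uM ATP at 22 °C, for Cy3-labelled switching-strand clusters annealed to 100 nM quencher-labelled ATP aptamer on a modified Illumina MiSeq flow-cell. Five of these buffer/ATP cycles ran, separated by NaOH stripping and re-annealing. The fluorescence ratio per cluster is summed target-cycle over summed buffer-cycle Cy3 intensity, averaged per switch-domain sequence; clusters outside 100-1000 RFU were removed.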
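Also: ATP exposure 15 min at 22 °C before imaging.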

Question: Which switch fluorescence ratio does the source give for TGGTGGCGCG here?
Answer: 0.976 ± 0.027

Question: How did the switch fluorescence ratio turn out when TGGTGGCGG was run?
Answer: 0.952 ± 0.037

Question: With TGGTGGCTTT as the sequence, how does the switch fluorescence ratio read?
Answer: 0.996 ± 0.015

Question: How did the switch fluorescence ratio turn out when TGGTGGGACG was run?
Answer: 1.06 ± 0.14

Question: TGGTGGGGG was tested. Which switch fluorescence ratio did it give?
Answer: 1.01 ± 0.051

Question: Which switch fluorescence ratio does the source give for TGGTGGGTAC here?
Answer: 1.03 ± 0.084

Question: How did the switch fluorescence ratio turn out when TGGTGGGTGG was run?
Answer: 1.03 ± 0.058

Question: TGGTGGTGTC was tested. Which switch fluorescence ratio did it give?
Answer: 0.985 ± 0.05

Question: Which switch fluorescence ratio does the source give for TGGTGTATTT here?
Answer: 1.01 ± 0.011

Question: How did the switch fluorescence ratio turn out when TGGTGTGATG was run?
Answer: 1.007 ± 0.0026

Question: TGGTGTGGGG was tested. Which switch fluorescence ratio did it give?
Answer: 0.993 ± 0.021

Question: For TGGTGTGGTT, which switch fluorescence ratio is on record?
Answer: 1.02 ± 0.021

Question: Which switch fluorescence ratio does the source give for TGGTGTGTCA here?
Answer: 1.005 ± 0.0092

Question: For TGGTTAAACT, which switch fluorescence ratio is on record?
Answer: 0.98 ± 0.027

Question: How did the switch fluorescence ratio turn out when TGGTTAACGC was run?
Answer: 0.999 ± 0.013

Question: Which switch fluorescence ratio does the source give for TGGTTACATC here?
Answer: 1.04 ± 0.015

Question: How did the switch fluorescence ratio turn out when TGGTTACCCC was run?
Answer: 1.001 ± 0.01

Question: How did the switch fluorescence ratio turn out when TGGTTACGTC was run?
Answer: 0.985 ± 0.026

Question: With TGGTTCAGCC as the sequence, how does the switch fluorescence ratio read?
Answer: 0.9868 ± 0.0033

Question: With TGGTTCATGT as the sequence, how does the switch fluorescence ratio read?
Answer: 0.9939 ± 0.008

Question: TGGTTCTATT was tested. Which switch fluorescence ratio did it give?
Answer: 1.02 ± 0.064

Question: With TGGTTGAAAT as the sequence, how does the switch fluorescence ratio read?
Answer: 0.975 ± 0.028

Question: TGGTTGCAGC was tested. Which switch fluorescence ratio did it give?
Answer: 1 ± 0.055

Question: Which switch fluorescence ratio does the source give for TGGTTGCTAA here?
Answer: 1.01 ± 0.02

Question: With TGGTTGG as the sequence, how does the switch fluorescence ratio read?
Answer: 0.994 ± 0.0015

Question: Which switch fluorescence ratio does the source give for TGGTTGGAGT here?
Answer: 1.006 ± 0.0035

Question: For TGGTTGGATC, which switch fluorescence ratio is on record?
Answer: 0.984 ± 0.019

Question: TGGTTGGGCA was tested. Which switch fluorescence ratio did it give?
Answer: 0.993 ± 0.055

Question: For TGGTTGGGGG, which switch fluorescence ratio is on record?
Answer: 0.995 ± 0.024

Question: For TGGTTGGTGG, which switch fluorescence ratio is on record?
Answer: 1.05 ± 0.09

Question: How did the switch fluorescence ratio turn out when TGGTTGTCCG was run?
Answer: 1.06 ± 0.059

Question: TGGTTTAGGC was tested. Which switch fluorescence ratio did it give?
Answer: 0.997 ± 0.011

Question: For TGGTTTCCCG, which switch fluorescence ratio is on record?
Answer: 0.975 ± 0.044

Question: TGGTTTGTTA was tested. Which switch fluorescence ratio did it give?
Answer: 1.02 ± 0.022

Question: TGGTTTGTTG was tested. Which switch fluorescence ratio did it give?
Answer: 0.9686 ± 0.0064

Question: How did the switch fluorescence ratio turn out when TGGTTTTCAG was run?
Answer: 0.997 ± 0.015

Question: How did the switch fluorescence ratio turn out when TGTAAAAAGG was run?
Answer: 0.98 ± 0.025

Question: Which switch fluorescence ratio does the source give for TGTAAAATGT here?
Answer: 0.998 ± 0.029

Question: Which switch fluorescence ratio does the source give for TGTAAACCGC here?
Answer: 1.2 ± 0.16

Question: How did the switch fluorescence ratio turn out when TGTAAATGTT was run?
Answer: 1.03 ± 0.04

Question: How did the switch fluorescence ratio turn out when TGTAACTGAG was run?
Answer: 1.0374 ± 3e-05

Question: TGTAAGGACT was tested. Which switch fluorescence ratio did it give?
Answer: 1.01 ± 0.038

Question: Which switch fluorescence ratio does the source give for TGTAAGGGGG here?
Answer: 0.989 ± 0.039

Question: For TGTAAGGGTT, which switch fluorescence ratio is on record?
Answer: 0.994 ± 0.027

Question: With TGTAATAGGG as the sequence, how does the switch fluorescence ratio read?
Answer: 0.979 ± 0.013

Question: Which switch fluorescence ratio does the source give for TGTAATCGTT here?
Answer: 0.964 ± 0.07

Question: TGTAATTTGT was tested. Which switch fluorescence ratio did it give?
Answer: 1 ± 0.027

Question: Which switch fluorescence ratio does the source give for TGTACGATGC here?
Answer: 1.12 ± 0.014

Question: With TGTACGGATT as the sequence, how does the switch fluorescence ratio read?
Answer: 1.0016 ± 0.00058

Question: How did the switch fluorescence ratio turn out when TGTACGGGGG was run?
Answer: 0.949 ± 0.021

Question: With TGTACTGGGC as the sequence, how does the switch fluorescence ratio read?
Answer: 1.06 ± 0.049

Question: Which switch fluorescence ratio does the source give for TGTAGATTGT here?
Answer: 1.01 ± 0.049

Question: With TGTAGCATGT as the sequence, how does the switch fluorescence ratio read?
Answer: 2.08 ± 1.3

Question: With TGTAGGGACG as the sequence, how does the switch fluorescence ratio read?
Answer: 0.957 ± 0.12

Question: How did the switch fluorescence ratio turn out when TGTAGGGGGT was run?
Answer: 1.01 ± 0.041

Question: With TGTAGTAAGT as the sequence, how does the switch fluorescence ratio read?
Answer: 1.01 ± 0.06

Question: With TGTAGTACTG as the sequence, how does the switch fluorescence ratio read?
Answer: 1.02 ± 0.043

Question: Which switch fluorescence ratio does the source give for TGTAGTCTGG here?
Answer: 0.969 ± 0.024

Question: Which switch fluorescence ratio does the source give for TGTAGTGAA here?
Answer: 1.1 ± 0.16

Question: With TGTATATAGG as the sequence, how does the switch fluorescence ratio read?
Answer: 0.955 ± 0.021

Question: TGTATCGGGT was tested. Which switch fluorescence ratio did it give?
Answer: 0.979 ± 0.035

Question: With TGTATGC as the sequence, how does the switch fluorescence ratio read?
Answer: 0.958 ± 0.051

Question: For TGTATGTGGG, which switch fluorescence ratio is on record?
Answer: 0.999 ± 0.028

Question: TGTATGTGGT was tested. Which switch fluorescence ratio did it give?
Answer: 1 ± 0.048

Question: TGTATTTTGG was tested. Which switch fluorescence ratio did it give?
Answer: 0.984 ± 0.029

Question: How did the switch fluorescence ratio turn out when TGTCACAGGG was run?
Answer: 1.063 ± 0.007

Question: For TGTCACCAGT, which switch fluorescence ratio is on record?
Answer: 1.02 ± 0.016

Question: How did the switch fluorescence ratio turn out when TGTCACTGTT was run?
Answer: 0.965 ± 0.022

Question: Which switch fluorescence ratio does the source give for TGTCAGAAGC here?
Answer: 0.994 ± 0.012

Question: Which switch fluorescence ratio does the source give for TGTCCGGTTT here?
Answer: 1.25 ± 0.36

Question: Which switch fluorescence ratio does the source give for TGTCGAGGGC here?
Answer: 0.965 ± 0.021

Question: How did the switch fluorescence ratio turn out when TGTCGCGTAT was run?
Answer: 0.992 ± 0.013

Question: For TGTCGGAGAT, which switch fluorescence ratio is on record?
Answer: 0.987 ± 0.018

Question: For TGTCGGATTA, which switch fluorescence ratio is on record?
Answer: 0.979 ± 0.011

Question: With TGTCGGATTT as the sequence, how does the switch fluorescence ratio read?
Answer: 1.13 ± 0.24

Question: For TGTCGGGCAG, which switch fluorescence ratio is on record?
Answer: 0.9843 ± 0.0038

Question: How did the switch fluorescence ratio turn out when TGTCGGTAAT was run?
Answer: 1.03 ± 0.022

Question: TGTCGTAATT was tested. Which switch fluorescence ratio did it give?
Answer: 1 ± 0.011

Question: TGTCGTGGGA was tested. Which switch fluorescence ratio did it give?
Answer: 1.01 ± 0.038

Question: TGTCTATGGG was tested. Which switch fluorescence ratio did it give?
Answer: 0.988 ± 0.023

Question: How did the switch fluorescence ratio turn out when TGTCTCTACG was run?
Answer: 1.021 ± 0.01

Question: For TGTCTGGGGT, which switch fluorescence ratio is on record?
Answer: 1 ± 0.019

Question: TGTCTTTTGA was tested. Which switch fluorescence ratio did it give?
Answer: 1.003 ± 0.0059

Question: Which switch fluorescence ratio does the source give for TGTGAACAGT here?
Answer: 0.975 ± 0.044

Question: Which switch fluorescence ratio does the source give for TGTGAACGTA here?
Answer: 1.01 ± 0.052
